# Assay results reported in patent publication US20190336589A1, “IMMUNIZING PEPTIDE, METHOD FOR PRODUCING IMMUNIZING PEPTIDE, PHARMACEUTICAL COMPOSITION FOR IMMUNE DISEASE CONTAINING SAME, AND METHOD FOR TREATING IMMUNE DISEASE” (OSAKA UNIVERSITY, priority 2015, published 2019).
# Key:
# [1] = target: T1, complex of HEL peptide and MHC class II molecule (I-A^k) on LK35.2 cells (Mus musculus, UniProt P01910+P06343); assay: Immunization of mice with HEL peptides; serum IgG1 binding to HEL peptide-pulsed LK35.2 cells (flow cytometry); format: in vivo, mice (B10.A strain); details: 30 nmol peptide with CFA subcutaneously; serum two weeks after administration
# T1 construct: LK35.2 cells expressing I-A^k (the MHC class II molecule); endogenous in cells; host or cells: LK35.2 cells
# Procedure: 30 nmol of the HEL peptide 41-70 or the HEL peptide 48-61 was mixed with a complete Freund's adjuvant. Each of the thus-obtained mixture was administered subcutaneously to mice (B10.A strain). Two weeks after the administration, whole blood was collected from each mouse, and serum was collected from the whole blood.
# LK35.2 cells were pulsed with the HEL peptide in the same manner as in the item (2) in Example 1B, except that the HEL peptide 41-70 or the HEL peptide 48-61 was added instead of the HEL protein, the HEL peptide 41-70, and the HEL peptide 48-61. The cultured LK35.2 cells were collected from the wells. Thereafter, the collected LK35.2 cells were used in antibody detection to be described below.
# Flow cytometry analysis was performed in the same manner as in the item (3) in Example 1A, except that the LK35.2 cells in the item (2) in Example 2A were used instead of the 293 T cells and that an Alexa®647-labeled anti-mouse IgG1 antibody (catalog number: A21240, Invitrogen) was used instead of the APC-labeled anti-mouse IgG (H+L) antibody (peptide added groups). As Control 1, the flow cytometry analysis was performed in the same manner, except that serums collected from non-immunized mice were used instead of the serums of the HEL peptide-immunized mice. As Control 2, the flow cytometry analysis was performed in the same manner, except that the HEL peptide was not added (peptide non-added groups).
# [2] = target: T2, complex of HEL peptide and MHC class II molecule (I-A^k) on 293 T cells (Mus musculus, UniProt P01910+P06343); assay: Flow cytometry of serum IgG from HEL protein-immunized mice binding to 293 T cells expressing I-A^k pulsed with HEL peptides
# T2 construct: α-chain of mouse MHC class II molecule (I-A^k); β-chain of mouse MHC class II molecule (I-A^k); expressed in transfected cells; host or cells: 293T cells (pME18S vectors, co-transfected with pMX-GFP)
# Text: From mouse spleen cDNA, polynucleotides encoding the α-chain and the β-chain of a mouse MHC class II molecule (I-A^k) shown below were cloned into pME18S vectors, respectively. Thus, a mouse MHC class II molecule (I-A^k) α-chain expression vector (I-A^k a expression vector) and a mouse MHC class II molecule (I-A^k) β-chain expression vector (I-A^k β expression vector) were produced. As a GFP expression vector, pMX-GFP (obtained from the Division of Cellular Therapy in the Advanced Clinical Research Center of the Institute of Medical Science, the University of Tokyo) was used.
# 293T cells (obtained from RIKEN BioResource Center) were used as host cells to which the above-described expression vectors were to be introduced. First, the 293 T cells were seeded in a 24-well plate at a density of 2×10^5 cells/500 μl/well. Next, the expression vectors were introduced to the 293T cells using a PEI max solution obtained by dissolving a transfection 5 reagent (PEI max, Cosmo Bio Co., Ltd.) in purified water at a concentration of 2 mg/ml. Specifically, a mixture of 2 μl of the PEI max solution and 50 μl of a serum-free medium (OPTI-MEM®, GIBCO) was added to 50 μl of a serum-free medium containing 0.26 μg of the I-A^k c expression vector, 0.26 μg of the I-A^k f expression vector, and 0.26 μg of the GFP expression vector. Then, they were mixed together, whereby a transfection reagent was prepared. Thereafter, the transfection reagent was added to each well to introduce the expression vectors to the 293 T cells. After the introduction, the 293 T cells were cultured in a DMEM medium at 37° C. for 12 hours. Next, each of HEL peptides shown in Table 3 below was added to the wells at a concentration of 20 μmol/l. The 293 T cells were cultured for another 24 hours under the above-described culture conditions, whereby the 293 T cells were pulsed with the HEL peptide. The cultured 293 T cells were collected from the wells. Thereafter, the collected 293 T cells were used in antibody detection to be described below. The HEL peptides used in the present example and the following examples were obtained from SCRUM Inc., Eurofins Genomics K.K., or GenScript. In the HEL protein, a T-cell epitope presented by the MHC class II molecule I-A^k is a peptide consisting of the amino acid sequence of SEQ ID NO: 1 (DGSTDYGILQINSR). Thus, among the HEL peptides shown in Table 3 below, HEL peptide 41-70 corresponds to the immunizing peptide.
# 100 μg of a HEL protein (Sigma) was mixed with a complete Freund's adjuvant (CFA, Sigma), and the resultant mixture was administered subcutaneously to mice (B10.A strain). Two weeks after the administration, whole blood was collected from each mouse, and serum was collected from the whole blood.
# The serum collected from each of the HEL protein-immunized mice was diluted 100-fold with a HANKS' BALANCED SALT SOLUTION (HBSS, Sigma) to obtain a diluted serum. Next, 10 μl of the diluted serum was added to the 293 T cells obtained in the above item (1) to cause a reaction. The 293 T cells after the reaction were washed, and then stained with an APC-labeled anti-mouse IgG (H+L) antibody (code-number: 715-136-150, Jackson ImmunoResearch). Thereafter, the stained 293 T cells were analyzed by flow cytometry (FACSCalibur™, Becton Dickinson) (peptide non-added groups). As peptide added groups, the HEL peptides shown in Table 3 above were added to the diluted serums, respectively, at a concentration of 40 μmol/l. Then, the diluted serums containing the respective HEL peptides were added to the 293 T cells pulsed with the corresponding HEL peptides to cause a reaction. Except for the above, the peptide added groups were analyzed by the flow cytometry analysis in the same manner.
# Peptide non-added groups were analyzed by flow cytometry in the same manner as in the above item (3), except that, instead of the HEL peptides shown in Table 3 above, the HEL peptide 41-70, the HEL peptide 48-61, and HEL peptides shown in Table 4 below were used. […]
# [3] = peptide added groups: same HEL peptide added to diluted serum at 40 μmol/l, serum of HEL protein-immunized mice
# [4] = peptide non-added groups, serum of HEL protein-immunized mice diluted 100-fold, I-A^k 293 T cells pulsed with 20 μmol/l peptide
# T1 sequence (P01910 24-256): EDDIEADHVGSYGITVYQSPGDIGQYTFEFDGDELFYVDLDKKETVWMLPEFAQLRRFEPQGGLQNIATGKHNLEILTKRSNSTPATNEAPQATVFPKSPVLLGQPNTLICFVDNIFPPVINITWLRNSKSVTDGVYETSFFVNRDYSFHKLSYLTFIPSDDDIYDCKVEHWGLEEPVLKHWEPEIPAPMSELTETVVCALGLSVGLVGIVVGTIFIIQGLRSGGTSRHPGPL
# T1 sequence (P06343 28-263): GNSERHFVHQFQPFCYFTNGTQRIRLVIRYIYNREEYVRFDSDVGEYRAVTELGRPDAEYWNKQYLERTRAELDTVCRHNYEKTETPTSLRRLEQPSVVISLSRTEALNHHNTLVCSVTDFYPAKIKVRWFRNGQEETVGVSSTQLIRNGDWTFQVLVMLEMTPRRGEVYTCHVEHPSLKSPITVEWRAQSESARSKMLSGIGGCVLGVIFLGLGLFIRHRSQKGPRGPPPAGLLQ
# T2 sequence (P01910 24-256): as the sequence (P01910 24-256) above
# T2 sequence (P06343 28-263): as the sequence (P06343 28-263) above
Sequence,IgG1 binding of serum of peptide-immunized mice to LK35.2 cells pulsed with HEL peptide 41-70 [1],IgG1 binding of serum of peptide-immunized mice to LK35.2 cells pulsed with HEL peptide 48-61 [1],"serum IgG binding to 293 T cells pulsed with the HEL peptide [2, 3]","serum IgG binding to 293 T cells pulsed with the HEL peptide [2, 4]"
"DGSTDYGILQINSR (Gallus gallus domesticus) [HEL peptide 48-61, reference compound]",not observed,not observed,not observed,not observed
QATNRNTDGSTDYGILQINSRWWCNDGRTP (Gallus gallus domesticus) [HEL peptide 41-70],observed,not observed,observed,observed
